B1: Gantenerumab: monoclonal antibody that binds to the N-terminal epitope of Aβ (antibody, chains of the INN, looked up, V domains shown)
VH: QVELVESGGGLVQPGGSLRLSCAASGFTFSSYAMSWVRQAPGKGLEWVSAINASGTRTYYADSVKGRFTISRDNSKNTLYLQMNSLRAEDTAVYYCARGKGNTHKPYGYVRYFDVWGQGTLVTVSS
VL: DIVLTQSPATLSLSPGERATLSCRASQSVSSSYLAWYQQKPGQAPRLLIYGASSRATGVPARFSGSGSGTDFTLTISSLEPEDFATYYCLQIYNMPITFGQGTKVEIK

Columns and labels:
amyloid β-protein = amyloid β-protein (Homo sapiens, UniProt P05067); experiment: equilibrium dissociation constant KD with amyloid β-protein solution; assay type: binding; settings: amyloid β-protein solution 10 μM, compound 0.1 to 10 μM, room temperature 20 min
Chain of amyloid β-protein (P05067 672-713 limits assumed): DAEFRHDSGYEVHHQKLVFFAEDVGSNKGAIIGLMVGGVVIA
Experimental: In the examples of the present disclosure, the affinity of the ^10B-containing compound and the amyloid β-protein deposition plaque is evaluated by using the equilibrium dissociation constant KD value. KD can indicate the degree of dissociation of the two substances in the equilibrium state.
The amyloid β-protein solution was prepared at a concentration of 10 μM and mixed with compound I or compound II at different concentrations (concentrations ranging from 0.1 to 10 μM). […] In addition, a known compound capable of specifically binding to amyloid β-protein was used as a control and mixed with a amyloid β-protein solution at a concentration of 10 μM and allowed to stand at room temperature for 20 min. The equilibrium dissociation constant KD was also measured and calculated.

Aβ = settings: phase III clinical trial, latest results; cited from earlier work
Chain of Aβ (P05067 672-711 limits assumed): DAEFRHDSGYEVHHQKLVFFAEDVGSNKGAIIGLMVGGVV

| Molecule | Kd (amyloid β-protein) | Aβ level in cerebrospinal fluid (Aβ) | tau protein level in cerebrospinal fluid (Aβ) |
| --- | --- | --- | --- |
| Cc1ccc(C(=O)/C=C/c2ccc(N)cc2)o1 [control] | 1590 nM |  |  |
| B1 |  | does not significantly reduce | significantly reduces |
